Results from US20120028347A1 (TOKAI UNIVERSITY EDUCATIONAL SYSTEM, published 2012).

What was measured:
[1] = biological target: T1, baculovirus-derived recombinant human CD4 (rhCD4) (human, UniProt P01730 26-396, limits assumed); experiment: ELISA, purified Fab on coated rhCD4
T1 construct: Bought reagent, coated on ELISA plates at 50 ng/well
Procedure: (§1) The rhCD4 was dissolved in a 50 mM carbonate buffer (pH 9.6) solution to a concentration of 2 μg/mL, and the thus prepared solution was dispensed in an amount of 50 μL each into the wells on an ELISA plate, and it was then left at 4° C. overnight. Thereafter, the wells were washed with PBS-T (PBS-0.05% Tween) once. Then, 300 μL of PBS-T-SM (PBS-T-1% skim milk) was added thereto, so as to block it at room temperature for 1 hour. Subsequently, the PBS-T-SM was removed, 50 μL of an antibody sample diluted with PBS-T-SM was then added thereto, and the mixture was then left at room temperature for 1 hour. Thereafter, the sample was removed, and the residue was then washed with PBS-T three times. A PO-bound anti-human IgG-Fab antibody was diluted with PBS-T at a ratio of 1:2000, and 50 μL of the thus diluted solution was then added to the wells. The obtained mixture was left at room temperature for 1 hour. Thereafter, the secondary antibody was removed, and the residue was then washed with PBS-T three times. 50 μL of a TMB reagent was added to the resultant, so as to develop color. The color was measured at OD of 650 nm.
(§2) The percentage of peripheral B cells producing human CD4-reactive antibodies in total peripheral B cells was assumed to be approximately 0.0013%. The binding of the IgM Fab of each of the purified three clones to rhCD4 was examined by ELISA (FIG. 2).

[2] = biological target: T1, baculovirus-derived recombinant human …; experiment: ELISA, purified Fab on coated rhCD4 (50 ng/well); amount of antibody at OD650 of about 0.7 to 0.8, where 50% of the maximum binding was observed
Procedure: as §1, with “Thereafter,” for “The rhCD4 was dissolved in a 50 mM carbonate buffer (pH 9.6) solution to a concentration of 2 μg/mL, and the thus prepared solution was dispensed in an amount of 50 μL each into the wells on an ELISA plate, and it was then left at 4° C. overnight. Thereafter,”
as §2

B1: HO538-213 (Fab, V domains shown)
VH: QVQLVQSGGGVVQPGRSLRLSCAASGFTFSSYGMHWVRQAPGKGLEWVAVVCYDGRTTYYADSVKGRFTISRDISENTLYLQMNSLRAEDTAVYYCAKDLNKGYCNNGGCYGVDCWGQGTLVTVSS
VL: EIVMTQSPATLSLSPGERATLSCRASQSVNNYLAWYQQRPGQAPSLLIYDASNRATGIPARFSGSGSGTDFTLTISSLEPEDFAVYYCQQRGNWPHTFGQGTKLEIKR
notes: Human IgM Fab (mu Fd and kappa light chain) expressed in E. coli JM109 from the vector pFab1-His2 and purified on an anti-Fab column; No sentence says it outright
- affinity relative to the other clones (HO702-001 and HO702-016) [1]: 0.125 fold
- EC50 [2]: ~8 µg/mL
